Laboratory results published in patent US20150125449A1 (published 2015).

Assays:
[1] = target: T1, Her2 on the surface of Her2-expressing cell lines (human, UniProt P04626 23-1255); assay: flow cytometry, SKOV3 cells
T1 construct: whole, on cells; The cell line of each value is named under assay; also called ErbB2; Her2 receptor

[2] = target: T1, Her2 on the surface of Her2-expressing …; assay: flow cytometry, MDA-MB-231 cells
[3] = target: Recombinant human HER2 (human, UniProt P04626 23-652); assay: SPR, antibody captured on anti-human IgG, recombinant human HER2 as analyte, 1:1 Langmuir; average, n 4
[4] = target: T1, Her2 on the surface of Her2-expressing …; assay: flow cytometry, SKOV3 cells; remark: listed apart in the source
[5] = target: T1, Her2 on the surface of Her2-expressing …; assay: flow cytometry, SKBR3 cells

Binder	Bmax [1]	Bmax [2]	Kd [2]	Kd [3]	koff [3]	kon [3]	Bmax [4]	Kd [4]	Bmax [5]	Kd [5]
OA4-scFv-BID2 (antibody) chain 1: QVQLVQSGAEVKKPGESLKISCKGSGYSFTSYWIAWVRQMPGKGLEYMGLIYPGDSDTKYSPSFQGQVTISVDKSVSTAYLQWSSLKPSDSAVYFCARHDVGYCTDRTCAKWPEWLGVWGQGTLVTVSSGGGGSSGGGSGGGGSQSVLTQPPSVSAAPGQKVTISCSGSSSNIGNNYVSWYQQLPGTAPKLLIYDHTNRPAGVPDRFSGSKSGTSASLAISGFRSEDEADYYCASWDYTLSGWVFGGGTKLTVLGAAEPKSSDKTHTCPPCPAPELLGGPSVFLFPPKPKDTLMISRTPEVTCVVVDVSHEDPEVKFNWYVDGVEVHNAKTKPREEQYNSTYRVVSVLTVLHQDWLNGKEYKCKVSNKALPAPIEKTISKAKGQPREPQVYTYPPSRDELTKNQVSLTCLVKGFYPSDIAVEWESNGQPENNYKTTPPVLDSDGSFALVSKLTVDKSRWQQGNVFSCSVMHEALHNHYTQKSLSLSPGK chain 2: not shown	7950									
OA2-Fab-Her2 (antibody) chain 1: not shown chain 2: not shown chain 3: EPKSSDKTHTCPPCPAPELLGGPSVFLFPPKPKDTLMISRTPEVTCVVVDVSHEDPEVKFNWYVDGVEVHNAKTKPREEQYNSTYRVVSVLTVLHQDWLNGKEYKCKVSNKALPAPIEKTISKAKGQPREPQVYVYPPSRDELTKNQVSLTCLVKGFYPSDIAVEWESNGQPENNYKTTPPVLDSDGSFALVSKLTVDKSRWQQGNVFSCSVMHEALHNHYTQKSLSLSPGK		412	9.97 nM	0.435 nM	0.000131 s⁻¹	313000 M⁻¹ s⁻¹	7070	4.72 nM	64800	10.8 nM
